Measured values from patent publication US20160279299A1, “SILK FIBROIN-BASED FLUID DELIVERY SYSTEMS AND DEVICES” (TRUSTEES OF TUFTS COLLEGE, priority 2013, published 2016).

Tested on: fat grafts (human lipoaspirate)
Experiment: In-vivo murine model of adipose tissue reconstruction: lipoaspirate fat graft perfused via silk fibroin-based catheter and osmotic pump
Procedure: Female athymic nude mice were divided into 3 groups: animals treated with insulin (n=24), dexamethasone (n=15), or PBS vehicle (n=10). The groups were further subdivided into four different doses for insulin (e.g., ˜100 μg, ˜300 μg, ˜650 μg, or ˜1000 μg) or three different doses for dexamethasone (e.g., ˜1 mg/ml, ˜2 mg/ml, ˜3 mg/ml). Osmotic pumps that can deliver a fluid with a selected flow rate for a period of time were prepared with the insulin or dexamethasone solution or PBS vehicle. In this Example, ALZET 4-week osmotic pumps with a selected flow rate of ˜0.11 μl/hr were used. One end of the silk fibroin-based catheter was connected to the pump, e.g., using medical grade silicone (e.g., Dow Corning) (FIG. 8A). The silk catheter/pump construct was primed for 48 hours at 37° C., per manufacturer's instructions.
Lipoaspirate grafts were obtained from human subcutaneous abdominal fat during scheduled elective surgery and processed for injection under laboratory conditions. Lipoaspirate was loaded into ˜1 ml syringes in sterile fashion. Mice were anesthetized with 2% isoflurane in oxygen at the time of the procedure. Once the anesthetic plane was obtained, the animals were prepped for sterile surgery. Each animal received two bilateral ˜500 μl subcutaneous injections of lipoaspirate on the dorsal region, for example, through a 16G Coleman cannula using the fan-injection technique, which uniformly spreads the fat graft created beneath the cutaneous layer. For each animal, one of the two fat grafts received a silk fibroin-based catheter connected to an implantable osmotic pump. The silk catheter/pump was implanted subcutaneously through a small incision between the scapulae, and the fat graft was placed surrounding the silk fibroin-based catheter. The incision for the catheter/pump implantation was closed with a standard wound clip. To prevent and/or reduce pain and discomfort, mice were given subcutaneous injections of ˜5 mg/kg ketoprofen (Fort Dodge Animal Health, Fort Dodge, Iowa) immediately after the surgical procedure and every 24 hours as needed.
At 4 weeks post surgery, the mice were euthanized using carbon dioxide asphyxiation followed by cervical dislocation, and graft tissue was isolated from the bilateral dorsal injection sites. Explants were assessed for mass on a standard laboratory balance, and volume was measured using a gas pycnometer (Accupyc II 1340; Micrometrics, Atlanta, Ga.). Immediately after the dimensional analysis was complete, the tissue samples were fixed in 10% neutral buffered formalin and processed and embedded in paraffin.

## insulin
Highest insulin groups, ~1000 μg and ~650 μg
  survival of animals: generally died during the study period
Insulin at ~0.11 μL/hr, 28 days post-implantation
  group (dose) with the highest volume retention: ~300 µg
Insulin doses, 28 days
  H&E: cellular response to the silk fibroin-based catheter: little to no cellular response
Insulin ~300 μg group
  deaths: no deaths due to drug overdose
Insulin ~300 μg group, 28 days
  fat retention and adipogenesis: trend toward fat retention and adipogenesis
Insulin ~1000 μg dose, 28 days
  H&E: tissue around the silk fibroin-based catheter: a fibrous tissue was observed to surround the silk fibroin-based catheter
Insulin ~100, ~300, ~650, ~1000 μg at ~0.11 μL/hr, 28 days post-implantation, gas pycnometry
  volume retention of fat grafts, statistical significance: no statistical significance in volume retention
insulin-treated mice, 4 weeks
  fat graft health / biocompatibility: no evidence of oil cysts or adverse biocompatibility reaction

## C[C@@H]1C[C@H]2[C@@H]3CCC4=CC(=O)C=C[C@]4(C)[C@@]3(F)[C@@H](O)C[C@]2(C)[C@@]1(O)C(=O)CO [dexamethasone]
Dexamethasone at ~0.11 μL/hr, 28 days post-implantation
  dose with the largest effect on fat graft volume: ~2 mg/mL
mouse, in vivo
  adverse events during the therapy: no adverse events
